Series [1] concerns the target T1, PfCas6 (PF1131) (Pyrococcus furiosus, UniProt Q8U1S4 SEQ:1-264).
T1 sequence: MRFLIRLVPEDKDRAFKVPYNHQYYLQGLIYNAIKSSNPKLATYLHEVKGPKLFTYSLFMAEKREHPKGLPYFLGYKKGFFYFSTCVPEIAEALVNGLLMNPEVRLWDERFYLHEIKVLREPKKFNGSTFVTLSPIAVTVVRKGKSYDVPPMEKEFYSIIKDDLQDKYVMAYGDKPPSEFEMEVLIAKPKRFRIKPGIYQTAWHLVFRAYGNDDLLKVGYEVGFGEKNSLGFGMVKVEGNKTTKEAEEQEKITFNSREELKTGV
Description: EMSA; 70 C. The note with it: tags: N-terminal 6xHis. The procedure: (§1) Typically, identical reaction conditions were used to assay the ability of PfCas6 protein to bind to and to cleave substrate RNAs. These reactions were initiated by incubating 0.05 μmol of ^32P-radiolabeled RNAs (either uniformly or 5'-end-labeled) with up to 1 (as indicated in the figure legends) of PfCas6 protein in 20 mM HEPES-KOH (pH 7.0), 250 mM KCl, 0.75 mM DTT, 1.5 mM MgCl_2, 5 μg of E. coli tRNA, and 10% glycerol in a 20-μL reaction volume for 30 minutes at 70° C. Half of the reactions were directly run on native 8% polyacrylamide gels to assay RNA binding by gel mobility shift essentially as described (Baker et al., 2005. Genes & Dev. 19: 1238-1248). […] Gels were dried and the radiolabeled RNAs visualized by phosphorimaging.
Figure 4: FIG. 4. CRISPR repeat sequence requirements for PfCas6 binding. (A) Detailed analysis of binding with a series of CRISPR-derived RNAs and mutants. The left panel illustrates the RNAs tested, with repeat (R) and invader targeting (ψ) sequences, and PfCas6 cleavage site (dashed lines) indicated. The shaded portion of j denotes an insertion, dashed block denotes an internal deletion, and The shaded portions of **, e, f, and k denote substitutions (with complementary sequence). DNA indicates a DNA repeat sequence substrate. PfCas6 binding is summarized relative to binding to the 5' cleavage product (++++). Corresponding RNA diagrams and data panels are designated with lowercase letters. The right panels show gel mobility shift analysis of the indicated RNAs with increasing concentrations (0, 1, 50, 200, and 500 nM) of PfCas6. Substrates are uniformly radiolabeled except for those shown in panels a, b, c, and 1, which are 5'-end-labeled. (B) PfCas6 interacts with the gel-purified 5' cleavage product.

Series [2] addresses T1, PfCas6 (PF1131). Description: EMSA; 0-500 nM Cas6, 70 C, 250 mM KCl, 1.5 mM MgCl2. Conditions: tags: N-terminal 6xHis; label: 32P uniform. The procedure:
Figure 3: FIG. 3. Identification of the site of PfCas6 cleavage within the CRISPR repeat RNA. (A) The site of PfCas6 cleavage within the CRISPR repeat RNA was mapped by incubating 5' end labeled repeat RNA with PfCas6 nuclease and comparing the size of the 5' RNA cleavage product (arrow) with RNAse T1 (T1) and alkaline hydrolysis (OH) sequence ladders. (B) Potential secondary structure of P. furiosus repeat RNA (SEQ ID No: 238) with cleavage site indicated. (C) Analysis of cleavage of wild-type and cleavage site mutant (AA to GG) repeat RNAs with increasing concentrations (0, 1, 50, 200, and 500 nM) of PfCas6. (D) Native gel mobility shift analysis of wild-type and mutant repeat RNAs with increasing concentrations of PfCas6. The positions of the free (RNA) and protein-bound (RNP) RNAs are indicated. 5' and 3' cleavage products are indicated in both C and D. The sizes of RNA markers (M) are indicated in A and C.
Typically, identical reaction conditions were used to assay the ability of PfCas6 protein to bind to and to cleave substrate RNAs. These reactions were initiated by incubating 0.05 μmol of ^32P-radiolabeled RNAs (either uniformly or 5'-end-labeled) with up to 1 (as indicated in the figure legends) of PfCas6 protein in 20 mM HEPES-KOH (pH 7.0), 250 mM KCl, 0.75 mM DTT, 1.5 mM MgCl_2, 5 μg of E. coli tRNA, and 10% glycerol in a 20-μL reaction volume for 30 minutes at 70° C. […]
For orientation: Mobility shift assays separate free from complexed probe on a gel.

For series [3], the target named is T1, PfCas6 (PF1131). Description: EMSA; binding to the 5' cleavage product formed during incubation. The note with it: tags: N-terminal 6xHis; label: 32P 5' or uniform. As to the method:
as §1
(§2) Figure 4: FIG. 4. CRISPR repeat sequence requirements for PfCas6 binding. (A) Detailed analysis of binding with a series of CRISPR-derived RNAs and mutants. The left panel illustrates the RNAs tested, with repeat (R) and invader targeting (ψ) sequences, and PfCas6 cleavage site (dashed lines) indicated. The shaded portion of j denotes an insertion, dashed block denotes an internal deletion, and The shaded portions of **, e, f, and k denote substitutions (with complementary sequence). DNA indicates a DNA repeat sequence substrate. PfCas6 binding is summarized relative to binding to the 5' cleavage product (++++). […]

The target in series [4] is T1, PfCas6 (PF1131). Kind of series: EMSA; up to 500 nM. Conditions: tags: N-terminal 6xHis; label: 5' 32P. As to the method:
as §1, §2

The target in series [5] is T1, PfCas6 (PF1131). Kind of series: footprint; nt 2-8 protected from Pb(II); nt 3, 5 and 8 from RNase A; no 3' region protection; 500 mM KCl. The note with it: tags: N-terminal 6xHis; label: 32P (5', 3' or uniform); potential weak hairpin, mostly unstructured in solution. The text has this:
Size markers include 5' end-labeled RNA markers (M) and alkaline hydrolysis ladders (OH). Bars along right side of each gel indicate strong protections. (B) 5' end-labeled CRISPR repeat RNA was used for lead-induced and RNase A cleavage as was done in (A). […] (C) A summary of cleavage protection is shown. The Cas6 cleavage site is indicated by an asterisk (*), and the nucleotides protected from cleavage are shown by the bars above and below the sequence FIG. 10. Lead-induced and RNase A cleavage footprinting with CRISPR repeat RNA and PfCas6. (A) 3' end labeled CRISPR repeat RNA was incubated in the absence (RNA) or presence of increasing concentrations of PfCas6 (indicated in μM) and then subjected to RNase A cleavage (left panel) or lead-induced cleavage (right panel). […] Size markers include 5' end-labeled RNA markers (M) and alkaline hydrolysis ladders (OH). Bars along right side of each gel indicate strong protections. (B) 5' end-labeled CRISPR repeat RNA was used for lead-induced and RNase A cleavage as was done in (A). […] (C) A summary of cleavage protection is shown. The Cas6 cleavage site is indicated by an asterisk (*), and the nucleotides protected from cleavage are shown by the bars above and below the sequence (SEQ ID NO: 238). Figure 10:
Specifically, nucleotides 2-8 were protected from lead induced cleavage in a Cas6 concentration dependent manner. […]

A further series has as its target T2, PfCas6 Y31F (Pyrococcus furiosus, UniProt Q8U1S4 SEQ:1-264, Y31F).
T2 sequence: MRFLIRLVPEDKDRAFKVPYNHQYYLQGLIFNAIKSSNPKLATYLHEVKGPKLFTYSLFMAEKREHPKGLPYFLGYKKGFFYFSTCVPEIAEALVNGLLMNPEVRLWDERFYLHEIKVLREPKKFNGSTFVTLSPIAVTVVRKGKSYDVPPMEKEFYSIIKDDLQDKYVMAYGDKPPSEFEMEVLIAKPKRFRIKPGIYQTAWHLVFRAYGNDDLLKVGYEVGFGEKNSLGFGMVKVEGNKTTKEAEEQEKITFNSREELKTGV
Kind of series: cleavage_in_vitro; 500 nM. The note with it: tags: N-terminal 6xHis; label: 32P (5', 3' or uniform); potential weak hairpin, mostly unstructured in solution. The procedure: (§3) RNA-binding and cleavage reactions. RNA binding and cleavage reactions were carried out as described in example 1. Briefly, 0.05 μmol of uniformly ^32P-labeled RNA was incubated in the absence (free RNA) or presence of increasing concentrations of Cas6 (as indicated in figure legends) in buffer A for 30 minutes at 65-70° C. Half of each reaction was run on 8% native polyacrylamide gels to assess RNA binding by gel mobility shift analysis. RNA cleavage was assessed by separation of the RNAs on denaturing, 7 M urea containing, 15% polyacrylamide gels following PCI extraction and ethanol precipitation. For analysis of native Cas6 cleavage activity, either ~40 μg of whole cell extract (WCE) or supernatant from an immunoprecipitation reaction (see below) was incubated with 0.05 μmol of uniformly ^32P labeled RNA for 30 minutes at 70° C. Alternatively, 10 μL of resin from an immunoprecipitation reaction (see below) was added. In this case, samples were mixed every five minutes by pipetting up and down during the 30 minute incubation at 70° C. The gels were dried and RNAs visualized by phosphor imaging. Quantitation of cleavage was performed using ImageQuant™ TL software (GE Life Sciences).
(§4) Figure 11: FIG. 11. Cleavage activity of Cas6 mutants. […] The 5' and 3' cleavage products are indicated. (B) Purified wild type (wt) and mutant Cas6 proteins (as indicated above) were separated by SDS-PAGE. Molecular weight markers are indicated in kDa.
(§5) Mutation of any of the three triad amino acids led to a significant decrease or complete loss of cleavage activity relative to wild type Cas6 (FIG. 11A).

The next series concerns the target T3, PfCas6 K52A (Pyrococcus furiosus, UniProt Q8U1S4 SEQ:1-264, K52A).
T3 sequence: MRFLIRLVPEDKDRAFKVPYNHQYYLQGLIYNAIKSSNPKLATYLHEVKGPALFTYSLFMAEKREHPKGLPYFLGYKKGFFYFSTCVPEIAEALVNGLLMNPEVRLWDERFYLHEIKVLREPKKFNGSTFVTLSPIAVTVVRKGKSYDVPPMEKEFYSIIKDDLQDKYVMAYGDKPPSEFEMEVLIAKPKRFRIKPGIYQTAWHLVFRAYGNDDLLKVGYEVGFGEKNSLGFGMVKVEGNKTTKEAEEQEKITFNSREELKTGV
Description: cleavage_in_vitro; 500 nM. The note with it: tags: N-terminal 6xHis; label: 32P (5', 3' or uniform); potential weak hairpin, mostly unstructured in solution. As to the method: as §3, §4, §5

A further series deals with T4, PfCas6 K52E (Pyrococcus furiosus, UniProt Q8U1S4 SEQ:1-264, K52E).
T4 sequence: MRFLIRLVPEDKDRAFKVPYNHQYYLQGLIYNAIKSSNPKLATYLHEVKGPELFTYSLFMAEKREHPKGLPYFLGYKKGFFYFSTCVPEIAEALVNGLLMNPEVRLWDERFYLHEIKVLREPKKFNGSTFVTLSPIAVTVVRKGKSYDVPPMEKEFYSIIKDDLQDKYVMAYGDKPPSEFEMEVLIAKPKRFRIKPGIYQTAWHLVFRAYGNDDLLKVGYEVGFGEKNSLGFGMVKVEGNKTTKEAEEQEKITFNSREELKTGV
Kind of series: cleavage_in_vitro; 500 nM. Conditions: tags: N-terminal 6xHis; label: 32P (5', 3' or uniform); potential weak hairpin, mostly unstructured in solution. As to the method: as §3, §4, §5

Series [6] addresses T1, PfCas6 (PF1131). Kind of series: EMSA; gel-purified; up to 500 nM. Conditions: tags: N-terminal 6xHis; label: 32P uniform. The procedure:
as §1, §2

Series [7] addresses T1, PfCas6 (PF1131). Kind of series: EMSA; binding abolished; up to 500 nM. The note with it: tags: N-terminal 6xHis; label: 32P uniform. As to the method:
as §1, §2

Series [8] deals with T1, PfCas6 (PF1131). Description: EMSA; affinity similar to 5' cleavage product. Conditions: tags: N-terminal 6xHis; label: 32P. The procedure: as §1, §2

B1: guide + first part of repeat (panel c) (ssRNA)
RNA: GGGAUUGAAAGUUGUAGUAUGCGGUCCUUGCGGCUGAGAGCACUUCAGGUUACAAUAAGACCAAAAUAGA
As for B1, in the series with PfCas6 (PF1131) [1] (label: 5' 32P), the binding result was “binds”.

For GGGUUACAAUAAGACCAAAAUAGGGUUGAAAG (ssRNA) [AA to GG cleavage site mutant repeat], in the series with PfCas6 (PF1131) [2], the binding result is “binds”.

B2: repeat-guide-repeat (R-g-R) (ssRNA)
RNA: GGGUUCCAAUAAGACUACAAAAGAAUUGAAAGUUGUAGUAUGCGGUCCUUGCGGCUGAGAGCACUUCAGGUUCCAAUAAGACUACCAAAAGAAUUGAAAG
On to B2, for which the binding result with PfCas6 (PF1131) [3] is listed as “binds”.

In the case of GGGUUACAAUAAGACCAAAAUAG (ssRNA) [del. 23-30], the binding result with PfCas6 (PF1131) [1] (label: 32P uniform) is listed as “binds”.

For the molecule AUUGAAAGUUGUAGUAUGCGGUCCUUGCGGCUGAGAGCACUUCAG (ssRNA) [last 8 nt of repeat + guide], in the series with PfCas6 (PF1131) [4], the binding result is given as “no binding”.

Consider GUUACAAUAAGACCAAAAUAGAAUUGAAAG (ssRNA) [CRISPR repeat RNA], for which the binding result in the series with PfCas6 (PF1131) [5] was “binds”. In addition, the activity with PfCas6 Y31F is ~2 fold reduction vs wild type; with PfCas6 K52A, > 40 fold reduction vs wild type; with PfCas6 K52E, > 150 fold reduction vs wild type.

On to GTTACAATAAGACCAAAATAGAATTGAAAG (ssDNA, [none]) [DNA repeat], for which the binding result in the series with PfCas6 (PF1131) [4] is listed as “no binding”.

On to AUUGAAAG (ssRNA) [3' cleavage product (repeat nt 23-30)], for which, in the series with PfCas6 (PF1131) [6], the binding result is on record as “no binding”.

As for GGGUUACAAUAAGACCAAAAUAGAAAACUUUC (ssRNA) [sub. 23-30], the binding result with PfCas6 (PF1131) [1] (label: 32P uniform) is recorded as “binds”.

Consider GGGAAGACCAAAAUAGAAUUGAAAG (ssRNA) [del. 1-8], for which the binding result with PfCas6 (PF1131) [7] is reported as “no binding”.

For GGGCAAUGUUAAAGACCAAAAUAGAAUUGAAAG (ssRNA) [sub. 1-8], in the series with PfCas6 (PF1131) [7], the binding result is recorded as “no binding”.

GUUACAAUAAGA (ssRNA) [repeat nt 1-12]: the binding result with PfCas6 (PF1131) [8] is “binds”.

Source of the values: patent US9404098, “Method for cleaving a target RNA using a Cas6 polypeptide” (University of Georgia Research Foundation, Inc.).
